Some targets named below: SARS-CoV N protein (SARS-CoV, UniProt P59595 P59595:1-422); SARS-CoV-2 spike RBD (SARS-CoV-2, UniProt P0DTC2 P0DTC2:319-541); SARS-CoV spike RBD (SARS-CoV, UniProt P59594 P59594:306-527).
The target in data set [1] is SARS-CoV-2 nucleocapsid (N) protein (SARS-CoV-2, UniProt P0DTC9 P0DTC9:1-419).

B1: Aptamer-N (Aptamer Np-48) (ssDNA)
DNA: GCTGGATGTCGCTTACGACAATATTCCTTAGGGGCACCGCTACATTGACACATCCAGC
modifications: 3' amino linker, coupled to PBASE-graphene
For the molecule B1, the binding result in data set [1] was “binds”.

B2: Aptamer-N (Aptamer Np-48) (ssDNA)
DNA: B1 DNA
Consider B2, for which, in the data set with SARS-CoV N protein, the binding result is “binds”.

B3: Aptamer-S (Aptamer 1C) (ssDNA)
DNA: CAGCACCGACCTTGTGCTTTGGGAGTGCTGGTCCAAGGGCGTTAATGGACA
In the case of B3, the binding result with SARS-CoV-2 spike RBD and with SARS-CoV spike RBD was “binds” throughout.

(Values after patent US20220252584, “METHODS AND DEVICES FOR […] A PATHOGEN AND ITS MOLECULAR COMPONENTS” (THE REGENTS OF THE UNIVERSITY OF CALIFORNIA, published 2022).)
